Source: article PMC12820532 (Nucleic Acids Research, 2026)

Target: His-REV7 (human, UniProt Q9UI95 1-211)
Assay: pull-down

His-REV7, sequence (Q9UI95 whole entry): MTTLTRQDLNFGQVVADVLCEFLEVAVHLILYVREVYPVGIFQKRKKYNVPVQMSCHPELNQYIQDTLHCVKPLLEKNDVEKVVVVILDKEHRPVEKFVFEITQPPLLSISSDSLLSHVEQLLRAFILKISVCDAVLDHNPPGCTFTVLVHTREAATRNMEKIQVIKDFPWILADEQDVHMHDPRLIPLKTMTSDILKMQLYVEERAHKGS

B1: GST-ATRIP 203–307 (WT) (domain or fragment)
chain: RTKLQTSERANKLAAPSVSHVSPRKNPSVVIKPEACSPQFGKTSFPTKESFSANMSLPHPCQTESGYKPLVGREDSKPHSLRGDSIKQEEAQKSFVDSWRQRSNT
binding result: binds

B2: GST-ATRIP 203–348 (domain or fragment)
chain: RTKLQTSERANKLAAPSVSHVSPRKNPSVVIKPEACSPQFGKTSFPTKESFSANMSLPHPCQTESGYKPLVGREDSKPHSLRGDSIKQEEAQKSFVDSWRQRSNTQGSILINLLLKQPLIPGSSLSLCHLLSSSSESPAGTPLQPP
binding result: binds
